Earlier results in article PMC10564622.
Where two headings read alike, the source gives them in different places. Each block holds one substance with its values, some of them ahead of it.

Experiments:
[1] = target: CUL3 NTD with N-terminal deletion (Homo sapiens) (UniProt Q13618)
CUL3 NTD (Homo sapiens) [2] = target: CUL3 NTD (Homo sapiens) (UniProt Q13618)
CUL3 NTD (Homo sapiens) [3] = target: CUL3 NTD (Homo sapiens) (UniProt Q13618); remark: listed apart in the source

Sequence of CUL3 NTD (Homo sapiens) (Q13618 20-381): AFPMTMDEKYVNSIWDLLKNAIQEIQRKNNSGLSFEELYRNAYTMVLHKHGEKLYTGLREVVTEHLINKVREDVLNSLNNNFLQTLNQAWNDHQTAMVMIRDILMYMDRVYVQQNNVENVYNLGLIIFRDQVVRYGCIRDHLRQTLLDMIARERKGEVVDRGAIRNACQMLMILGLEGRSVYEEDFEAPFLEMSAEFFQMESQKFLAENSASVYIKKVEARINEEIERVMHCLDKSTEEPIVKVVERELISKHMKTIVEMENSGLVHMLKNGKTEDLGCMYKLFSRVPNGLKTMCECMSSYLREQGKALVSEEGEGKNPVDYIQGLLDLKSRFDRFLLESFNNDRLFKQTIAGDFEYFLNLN
Sequence of CUL3 NTD with N-terminal deletion (Homo sapiens) (Q13618 20-381, stated change not applied): as the sequence (Q13618 20-381) above
Sequence of KLHL3 BTB-BACK (Q9UH77 24-276): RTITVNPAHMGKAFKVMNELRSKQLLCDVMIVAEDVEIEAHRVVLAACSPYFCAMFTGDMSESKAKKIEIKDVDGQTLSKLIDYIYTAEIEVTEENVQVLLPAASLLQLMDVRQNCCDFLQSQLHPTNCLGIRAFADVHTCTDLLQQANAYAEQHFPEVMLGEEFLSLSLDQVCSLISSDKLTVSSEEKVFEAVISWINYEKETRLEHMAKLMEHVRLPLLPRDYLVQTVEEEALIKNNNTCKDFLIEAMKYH
Sequence of SPOP BTB (O43791 170-300): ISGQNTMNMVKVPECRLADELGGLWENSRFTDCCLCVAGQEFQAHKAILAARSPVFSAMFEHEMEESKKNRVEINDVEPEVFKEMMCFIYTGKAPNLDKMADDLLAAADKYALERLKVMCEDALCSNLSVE
Sequence of SPOP BTB-3-box (O43791 177-319): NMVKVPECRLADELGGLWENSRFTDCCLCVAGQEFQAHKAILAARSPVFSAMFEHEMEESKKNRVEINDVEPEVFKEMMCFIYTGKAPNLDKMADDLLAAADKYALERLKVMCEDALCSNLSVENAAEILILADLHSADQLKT

Kd [1]: 110 nM
Substance: KLHL3 BTB-BACK (from UniProt Q9UH77)

Kd (CUL3 NTD (Homo sapiens) [2]): 17 nM
Substance: SPOP BTB-3-box (from UniProt O43791)

Kd (CUL3 NTD (Homo sapiens) [3]): 1000 nM
Substance: SPOP BTB (from UniProt O43791)
